These results are taken from the supplement of paper PMC10724198.

± gives the standard deviation of the averaged measurements.

The test system of the data set is Saccharomyces cerevisiae. Put plainly: protein stability index of tFT-peptide fusion (C-terminal peptide) (PSI (0-1 scale)); higher = more stable (slower turnover). Conditions: temperature: 30 C. The procedure:
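MPS profiling in S. cerevisiae of the yeast C-terminome library: the last 12 aa of each annotated ORF are fused to the C-terminus of a sfGFP-mCherry timer, after a GGGS linker. Cells are FACS-sorted into 8 mCherry/sfGFP bins and deep-sequenced. PSI runs from 0 (unstable) to 1 (stable); wild type and das1Δ backgrounds, two technical replicates each.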

Setting [1] is: genetic background: das1 deletion.

DSEDDNDTSSES [PRP38 C-terminal 12 aa] yielded a protein stability index under setting [1] of 0.682 ± 0.026 and a protein stability index (genetic background: wild type) of 0.6733 ± 0.0012.

For DSMRGNSRNNMF [EBS1 C-terminal 12 aa], the protein stability index by setting is: under setting [1], 0.7083 ± 0.0062; (genetic background: wild type) 0.717 ± 0.021.

As to DSTAPKPIPGKE [YKL030W C-terminal 12 aa], the protein stability index came out at 0.68 ± 0.0037 under setting [1] and 0.663 ± 0.009 (genetic background: wild type).

As for DTSLYRYRSYGY [PUF2 C-terminal 12 aa], the protein stability index runs as follows: under setting [1], 0.7007 ± 0.0045; (genetic background: wild type) 0.683 ± 0.033.

With DTSPAQEQSPAN [ARG80 C-terminal 12 aa], the protein stability index reads like this: under setting [1], 0.695 ± 0.026; (genetic background: wild type) 0.709 ± 0.013.

With DTTFTGCTKKIL [YGL102C C-terminal 12 aa], the protein stability index under setting [1] worked out at 0.698 ± 0.023 and the protein stability index (genetic background: wild type) worked out at 0.66 ± 0.019.

Turning to DVEVVCRQNNFV [YDR327W C-terminal 12 aa], the protein stability index reads like this: under setting [1], 0.723 ± 0.0082; (genetic background: wild type) 0.724 ± 0.025.

For the sequence DYKLLKELASQV [GLT1 C-terminal 12 aa], the protein stability index runs as follows: under setting [1], 0.66531 ± 0.00065; (genetic background: wild type) 0.635 ± 0.054.

DYLYAKDDLLKW [GPP1 C-terminal 12 aa]: the protein stability index is 0.7287 ± 0.0048 under setting [1] and 0.709 ± 0.011 (genetic background: wild type).

As for EALVKQITSVKQ [SCC4 C-terminal 12 aa], the protein stability index runs as follows: under setting [1], 0.6973 ± 0.006; (genetic background: wild type) 0.701 ± 0.015.

Consider EDGAVGNLFDDN [MSN5 C-terminal 12 aa], for which the protein stability index reads like this: under setting [1], 0.681 ± 0.018; (genetic background: wild type) 0.667 ± 0.033.

EDGRPPQNDFKE [TIM22 C-terminal 12 aa]: the protein stability index turned out to be 0.699 ± 0.0092 under setting [1] and 0.734 ± 0.057 (genetic background: wild type).

EDHKFDLSTITV [MRPL24 C-terminal 12 aa]: the protein stability index is, setting by setting: under setting [1], 0.703 ± 0.01; (genetic background: wild type) 0.717 ± 0.023.

As for EDKGLLSCCTVM [YCP4 C-terminal 12 aa], the protein stability index is, setting by setting: under setting [1], 0.786 ± 0.011; (genetic background: wild type) 0.743 ± 0.032.

EEADSLYISMGL [LCD1 C-terminal 12 aa]: the protein stability index turned out to be 0.709 ± 0.021 under setting [1] and 0.701 ± 0.012 (genetic background: wild type).

With EEAFGKVQTKTF [SOL3 C-terminal 12 aa], the protein stability index reads like this: under setting [1], 0.7098 ± 0.0052; (genetic background: wild type) 0.7564 ± 0.0044.

EEFSSGDYSMDY [RIE1 C-terminal 12 aa] returned a protein stability index under setting [1] of 0.7024 ± 0.006 and a protein stability index (genetic background: wild type) of 0.66 ± 0.025.

As for EEMIRSSSLYDE [ACA1 C-terminal 12 aa], the protein stability index by setting is: under setting [1], 0.7312 ± 0.0059; (genetic background: wild type) 0.711 ± 0.029.

Consider EENENDCDSEIQ [RTS1 C-terminal 12 aa], for which the protein stability index is 0.7103 ± 0.0013 under setting [1] and 0.696 ± 0.0094 (genetic background: wild type).

On to EGVRNRRKALKK [ARO3 C-terminal 12 aa], for which the protein stability index reads like this: under setting [1], 0.684 ± 0.027; (genetic background: wild type) 0.669 ± 0.022.

Consider EGVSIIESTFIN [YLR225C C-terminal 12 aa], for which the protein stability index under setting [1] is 0.693 ± 0.012 and the protein stability index (genetic background: wild type) was 0.68 ± 0.051.

Take EHCPGVNEDDHK [CMG1 C-terminal 12 aa]: the protein stability index by setting is: under setting [1], 0.703 ± 0.011; (genetic background: wild type) 0.701 ± 0.026.

The sequence EIKKIYQNEKKI [DPC7 C-terminal 12 aa] gave a protein stability index under setting [1] of 0.726 ± 0.044 and a protein stability index (genetic background: wild type) of 0.677 ± 0.029.

In the case of EILSMPDLSKYQ [SDH5 C-terminal 12 aa], the protein stability index under setting [1] was 0.6922 ± 0.0032 and the protein stability index (genetic background: wild type) stood at 0.704 ± 0.044.

EINNNLGVRLVD [DMA1 C-terminal 12 aa]: the protein stability index came out at 0.711 ± 0.012 under setting [1] and 0.697 ± 0.026 (genetic background: wild type).

Regarding EIRNMVINSTKD [BFA1 C-terminal 12 aa], the protein stability index worked out at 0.713 ± 0.008 under setting [1] and 0.688 ± 0.021 (genetic background: wild type).

EKDELDNIEVSK [QCR7 C-terminal 12 aa] yielded a protein stability index under setting [1] of 0.696 ± 0.0052 and a protein stability index (genetic background: wild type) of 0.683 ± 0.0078.

Turning to EKFLGKKKTKTD [GPI16 C-terminal 12 aa], the protein stability index worked out at 0.701 ± 0.06 under setting [1] and 0.689 ± 0.05 (genetic background: wild type).

For EKKIATRGAFAC [MCO32 C-terminal 12 aa], the protein stability index amounted to 0.707 ± 0.01 under setting [1] and 0.7 ± 0.012 (genetic background: wild type).

Consider EKQYVKILDDTH [CSF1 C-terminal 12 aa], for which the protein stability index by setting is: under setting [1], 0.716 ± 0.011; (genetic background: wild type) 0.695 ± 0.037.

Regarding EKRFPEVMMLEK [FET4 C-terminal 12 aa], the protein stability index amounted to 0.703 ± 0.026 under setting [1] and 0.679 ± 0.0099 (genetic background: wild type).

Turning to EKVNEILRSTEK [GCD14 C-terminal 12 aa], the protein stability index by setting is: under setting [1], 0.69 ± 0.0098; (genetic background: wild type) 0.717 ± 0.0097.

With EKWKINKKETVE [MOD5 C-terminal 12 aa], the protein stability index is 0.697 ± 0.03 under setting [1] and 0.7095 ± 0.0026 (genetic background: wild type).

Turning to ELAYKSFYALLD [VPS28 C-terminal 12 aa], the protein stability index is, setting by setting: under setting [1], 0.691 ± 0.019; (genetic background: wild type) 0.702 ± 0.045.

Turning to ELENEHVPWGKK [HNM1 C-terminal 12 aa], the protein stability index is, setting by setting: under setting [1], 0.714 ± 0.032; (genetic background: wild type) 0.667 ± 0.015.

In turn, ELIISKREIEKE [GEA1 C-terminal 12 aa] had a protein stability index under setting [1] of 0.724 ± 0.022 and a protein stability index (genetic background: wild type) of 0.731 ± 0.079.

As for ELKRSGKLTRSV [TRM7 C-terminal 12 aa], the protein stability index was 0.699 ± 0.0086 under setting [1] and 0.662 ± 0.013 (genetic background: wild type).

ELLYLIIAGLHI [FYV5 C-terminal 12 aa]: the protein stability index amounted to 0.6959 ± 0.0029 under setting [1] and 0.7 ± 0.05 (genetic background: wild type).

Take ELRERLLRPSKK [YPL245W C-terminal 12 aa]: the protein stability index by setting is: under setting [1], 0.7246 ± 0.0023; (genetic background: wild type) 0.771 ± 0.032.

Regarding ELTKQHGNKDSN [RTK1 C-terminal 12 aa], the protein stability index reads like this: under setting [1], 0.7 ± 0.025; (genetic background: wild type) 0.659 ± 0.0056.

On to ENDDHLYIFGRN [TIM18 C-terminal 12 aa], for which the protein stability index runs as follows: under setting [1], 0.743 ± 0.033; (genetic background: wild type) 0.731 ± 0.045.

As to ENVEEDKEVHTN [PBI2 C-terminal 12 aa], the protein stability index was 0.675 ± 0.036 under setting [1] and 0.6976 ± 0.0046 (genetic background: wild type).

As for EPSLRGHLIFVL [YBR300C C-terminal 12 aa], the protein stability index runs as follows: under setting [1], 0.515 ± 0.0098; (genetic background: wild type) 0.5178 ± 0.0049.

Turning to EQAAKYIEYLNL [RAD10 C-terminal 12 aa], the protein stability index by setting is: under setting [1], 0.817 ± 0.019; (genetic background: wild type) 0.603 ± 0.045.

In the case of EQEVIFTDLTAY [ECM32 C-terminal 12 aa], the protein stability index was 0.742 ± 0.015 under setting [1] and 0.7 ± 0.012 (genetic background: wild type).

EQHNVLDTKKNE [SPC2 C-terminal 12 aa]: the protein stability index is 0.687 ± 0.037 under setting [1] and 0.649 ± 0.029 (genetic background: wild type).

As for ERDGYYYLKRSS [VHT1 C-terminal 12 aa], the protein stability index by setting is: under setting [1], 0.715 ± 0.019; (genetic background: wild type) 0.694 ± 0.02.

As to EREVNPSARSLG [YLR184W C-terminal 12 aa], the protein stability index under setting [1] was found to be 0.694 ± 0.028 and the protein stability index (genetic background: wild type) came out at 0.684 ± 0.013.

On to ESKKTKGEELTL [ARG1 C-terminal 12 aa], for which the protein stability index is, setting by setting: under setting [1], 0.6793 ± 0.0016; (genetic background: wild type) 0.669 ± 0.015.

Regarding ESLSNEAALKAN [RPO31 C-terminal 12 aa], the protein stability index runs as follows: under setting [1], 0.676 ± 0.027; (genetic background: wild type) 0.397 ± 0.017.

In the case of ESPTEDSVPHAE [CSA1 C-terminal 12 aa], the protein stability index reads like this: under setting [1], 0.709 ± 0.018; (genetic background: wild type) 0.687 ± 0.032.

Regarding ESSARRDRKEHI [TMA23 C-terminal 12 aa], the protein stability index reads like this: under setting [1], 0.679 ± 0.035; (genetic background: wild type) 0.701 ± 0.041.

Regarding ETDSESEVESIM [SYG1 C-terminal 12 aa], the protein stability index by setting is: under setting [1], 0.697 ± 0.036; (genetic background: wild type) 0.675 ± 0.025.

As for EVKVDKVVYEKE [VPS29 C-terminal 12 aa], the protein stability index stood at 0.683 ± 0.067 under setting [1] and 0.725 ± 0.04 (genetic background: wild type).

As for EVSTEDTVHDEL [EUG1 C-terminal 12 aa], the protein stability index under setting [1] is 0.675 ± 0.0097 and the protein stability index (genetic background: wild type) turned out to be 0.683 ± 0.041.

On to EYLQSMKTSINR [SFB2 C-terminal 12 aa], for which the protein stability index stood at 0.69 ± 0.024 under setting [1] and 0.695 ± 0.024 (genetic background: wild type).

Take FARFITAIFHHI [MKC7 C-terminal 12 aa]: the protein stability index came out at 0.73 ± 0.019 under setting [1] and 0.153 ± 0.0061 (genetic background: wild type).

Take FDALMNNDGDSD [TIF4632 C-terminal 12 aa]: the protein stability index runs as follows: under setting [1], 0.68 ± 0.016; (genetic background: wild type) 0.6696 ± 0.0037.

For FDDSSSVSSKSD [GPC1 C-terminal 12 aa], the protein stability index by setting is: under setting [1], 0.717 ± 0.014; (genetic background: wild type) 0.695 ± 0.027.

For the sequence FDRVRLLVDKIT [HIR3 C-terminal 12 aa], the protein stability index is, setting by setting: under setting [1], 0.683 ± 0.0076; (genetic background: wild type) 0.234 ± 0.0042.

On to FDSNVSVAVDER [SET5 C-terminal 12 aa], for which the protein stability index runs as follows: under setting [1], 0.699 ± 0.022; (genetic background: wild type) 0.651 ± 0.027.

For FFLEECHRIGSK [HEM12 C-terminal 12 aa], the protein stability index is 0.726 ± 0.015 under setting [1] and 0.7467 ± 0.007 (genetic background: wild type).

In the case of FGGVRSPKMRRL [MRPS18 C-terminal 12 aa], the protein stability index stood at 0.72 ± 0.017 under setting [1] and 0.681 ± 0.042 (genetic background: wild type).

Regarding FGSNVNQQFNFN [SRP1 C-terminal 12 aa], the protein stability index runs as follows: under setting [1], 0.723 ± 0.0085; (genetic background: wild type) 0.719 ± 0.032.

With FHHMLIFIILKL [PRM2 C-terminal 12 aa], the protein stability index amounted to 0.203 ± 0.013 under setting [1] and 0.193 ± 0.028 (genetic background: wild type).

As for FIVAEYIQQKKV [SRB4 C-terminal 12 aa], the protein stability index is, setting by setting: under setting [1], 0.694 ± 0.018; (genetic background: wild type) 0.3321 ± 0.00069.

For the sequence FKMCETEMQPIK [YGR201C C-terminal 12 aa], the protein stability index came out at 0.7043 ± 0.0065 under setting [1] and 0.669 ± 0.013 (genetic background: wild type).

On to FLDDVLNGREII [YNL058C C-terminal 12 aa], for which the protein stability index runs as follows: under setting [1], 0.708 ± 0.011; (genetic background: wild type) 0.752 ± 0.015.
